Measurements as given in US20240279315A1 (priority 2023, published 2024).
Read-outs that look alike come from different tables or passages of the source.

Columns and labels:
[1] = test system: influenza A/Anhui/1/2013 (H7N9) virus; parameters: species or system BALB/c mice; settings: mouse, in vivo
[2] = biological target: hemagglutinin (HA) of influenza B/Brisbane/60/2008 B-Vic (influenza B virus B/Brisbane/60/2008); assay: cell-based or functional assay
[3] = biological target: hemagglutinin (HA) of influenza B/Colorado/06/2017 B-Vic (influenza B virus B/Colorado/06/2017); assay: cell-based or functional assay
[4] = biological target: hemagglutinin (HA) of influenza A/Hong Kong/4801/2014 H3N2 (influenza A virus A/Hong Kong/4801/2014 (H3N2)); assay: cell-based or functional assay
[5] = biological target: hemagglutinin (HA) of influenza B/Maryland/15/2016 B-Vic (influenza B virus B/Maryland/15/2016); assay: cell-based or functional assay
[6] = biological target: hemagglutinin (HA) of influenza A/Switzerland/9715293/2013 H3N2 (influenza A virus A/Switzerland/9715293/2013 (H3N2)); assay: cell-based or functional assay
[7] = biological target: hemagglutinin (HA) of influenza B/Phuket/3073/2013 B-Yam (influenza B virus B/Phuket/3073/2013); assay: cell-based or functional assay
[8] = biological target: hemagglutinin (HA) of influenza A/Singapore/INFIMH-16-0019/2016 H3N2 (influenza A virus A/Singapore/INFIMH-16-0019/2016 (H3N2)); assay: cell-based or functional assay
[9] = biological target: hemagglutinin (HA) of influenza B/Colorado/06/2017 B-Vic (influenza B virus B/Colorado/06/2017); assay: cell-based or functional assay; remark: listed apart in the source
[10] = biological target: hemagglutinin (HA) of influenza A/Sydney/5/2021 (influenza A virus A/Sydney/5/2021); assay: cell-based or functional assay
[11] = biological target: hemagglutinin (HA) of influenza A/Kansas/14/2017 H3N2 (influenza A virus A/Kansas/14/2017 (H3N2)); assay: cell-based or functional assay
[12] = biological target: hemagglutinin (HA) of influenza A/Tasmania/503/2020 (H3N2) (influenza A virus A/Tasmania/503/2020 (H3N2)); assay: cell-based or functional assay
[13] = biological target: hemagglutinin (HA) of influenza A/Brisbane/02/2018 H1N1 (influenza A virus A/Brisbane/02/2018 (H1N1)); assay: cell-based or functional assay
[14] = biological target: hemagglutinin (HA) of influenza A/Wisconsin/588/2019 (influenza A virus A/Wisconsin/588/2019); assay: cell-based or functional assay
[15] = biological target: hemagglutinin (HA) of influenza B/Washington/02/2019 B-Vic (influenza B virus B/Washington/02/2019); assay: cell-based or functional assay
[16] = biological target: hemagglutinin (HA) of influenza B/Austria/1359417/2021 (influenza B virus B/Austria/1359417/2021); assay: cell-based or functional assay
[17] = biological target: hemagglutinin (HA) of influenza A/Darwin/6/2021 (influenza A virus A/Darwin/6/2021); assay: cell-based or functional assay
[18] = biological target: hemagglutinin (HA) of influenza B/Phuket/3073/2013 B-Yam (influenza B virus B/Phuket/3073/2013); assay: cell-based or functional assay; remark: listed apart in the source
[19] = biological target: hemagglutinin (HA) of influenza A/Singapore/INFIMH-16-0019/2016 H3N2 (influenza A virus A/Singapore/INFIMH-16-0019/2016 (H3N2)); assay: cell-based or functional assay; remark: listed apart in the source
[20] = biological target: hemagglutinin (HA) of influenza A/Hawaii/70/2019 (influenza A virus A/Hawaii/70/2019); assay: cell-based or functional assay
[21] = biological target: hemagglutinin (HA) of influenza A/Kansas/14/2017 H3N2 (influenza A virus A/Kansas/14/2017 (H3N2)); assay: cell-based or functional assay; remark: listed apart in the source
[22] = biological target: hemagglutinin (HA) of influenza A/Cambodia/e0826360/2020 H3N2 (influenza A virus A/Cambodia/e0826360/2020 (H3N2)); assay: cell-based or functional assay
[23] = biological target: hemagglutinin (HA) of influenza B/California/12/2015 B-Yam (influenza B virus B/California/12/2015); assay: cell-based or functional assay
[24] = biological target: hemagglutinin (HA) of influenza B/Washington/02/2019 B-Vic (influenza B virus B/Washington/02/2019); assay: cell-based or functional assay; remark: listed apart in the source
[25] = biological target: hemagglutinin (HA) of influenza A/Hong Kong/45/2019 H3N2 (influenza A virus A/Hong Kong/45/2019 (H3N2)); assay: cell-based or functional assay
[26] = biological target: hemagglutinin (HA) of influenza A/Brisbane/02/2018 H1N1 (influenza A virus A/Brisbane/02/2018 (H1N1)); assay: cell-based or functional assay; remark: listed apart in the source
[27] = biological target: hemagglutinin (HA) of influenza A/Victoria/2570/2019 H1N1 (influenza A virus A/Victoria/2570/2019 (H1N1)); assay: cell-based or functional assay
[28] = biological target: hemagglutinin (HA) of influenza A/Brisbane/02/2018 H1N1 (influenza A virus A/Brisbane/02/2018 (H1N1)); assay: cell-based or functional assay; remark: listed apart in the source
[29] = biological target: hemagglutinin (HA) of influenza A/Victoria/2570/2019 H1N1 (influenza A virus A/Victoria/2570/2019 (H1N1)); assay: cell-based or functional assay; remark: listed apart in the source

Compound	HAI titer [3] [titer]	HAI titer [5] [titer]	HAI titer [7] [titer]	HAI titer [8] [titer]	HAI titer [9] [titer]	HAI titer [10] [titer]	HAI titer [11] [titer]	HAI titer [12] [titer]	HAI titer [13] [titer]	HAI titer [14] [titer]	HAI titer [15] [titer]	HAI titer [16] [titer]	HAI titer [17] [titer]	HAI titer [18] [titer]	HAI titer [19] [titer]	HAI titer [20] [titer]	HAI titer ratio of SAB-176 to hIVIG [3] [X]	HAI titer [21] [titer]	HAI titer ratio of SAB-176 to hIVIG [21] [X]	HAI titer [22] [titer]	further results
CCOC(=O)C1=C[C@@H](OC(CC)CC)[C@H](NC(C)=O)[C@@H](N)C1 [oseltamivir]	–	–	–	–	–	–	–	–	–	–	–	–	–	–	–	–	–	–	–	–	protection from challenge (body weight) [1]: did show protection from challenge
SAB-176 (antibody)	512	512	512	512	–	–	–	–	–	–	–	–	–	–	–	–	–	–	–	–	HAI titer [2]: 64 titer; HAI titer [4]: 1024 titer; HAI titer [6]: > 2048 titer
SAB-176 Lot 1 (PD1901102QR) (antibody)	256	256	128	512	160	320	40	40	1280	320	160	28	113	160	320	1280	16 to 32	64	2 to 16	128	HAI titer ratio of SAB-176 to hIVIG [22]: 4 to 8 X; HAI titer [23]: 128 titer; HAI titer ratio of SAB-176 to hIVIG [23]: 16 to 32 X; HAI titer [24]: 64 titer; HAI titer ratio of SAB-176 to hIVIG [24]: 8 to 16 X; HAI titer of drug product [5]: 3840 titer; HAI titer ratio of SAB-176 to hIVIG [5]: 16 to 32 X; HAI titer of drug product [7]: 1920 titer; HAI titer ratio of SAB-176 to hIVIG [7]: 16 X; HAI titer of drug product [8]: 7680 titer; HAI titer ratio of SAB-176 to hIVIG [8]: 8 to 32 X; HAI titer [25]: 64 titer; HAI titer ratio of SAB-176 to hIVIG [25]: 4 to 8 X; HAI titer [26]: 512 titer; HAI titer ratio of SAB-176 to hIVIG [26]: 16 to 32 X; HAI titer [27]: 256 titer; HAI titer ratio of SAB-176 to hIVIG [27]: 16 to 32 X
SAB-176 Lot 2 (PD2001010QR) (antibody)	256	256	256	512	320	320	40	160	1280	640	160	28	113	160	320	640	16 to 32	64	2 to 16	256	HAI titer ratio of SAB-176 to hIVIG [22]: 8 to 16 X; HAI titer [23]: 128 titer; HAI titer ratio of SAB-176 to hIVIG [23]: 16 to 32 X; HAI titer [28]: 512 titer; HAI titer ratio of SAB-176 to hIVIG [28]: 16 to 32 X; HAI titer [24]: 128 titer; HAI titer ratio of SAB-176 to hIVIG [24]: 16 to 32 X; HAI titer of drug product [5]: 3580 titer; HAI titer ratio of SAB-176 to hIVIG [5]: 16 to 32 X; HAI titer [29]: 256 titer; HAI titer ratio of SAB-176 to hIVIG [29]: 16 to 32 X; HAI titer of drug product [7]: 3580 titer; HAI titer ratio of SAB-176 to hIVIG [7]: 32 X; HAI titer of drug product [8]: 7170 titer; HAI titer ratio of SAB-176 to hIVIG [8]: 8 to 32 X
